{
  "source": "patent US11311610B2",
  "about": "“Immune-modulating agents and uses therefor” (UNIVERSITY OF TECHNOLOGY SYDNEY, priority 2010, dated 2022)",
  "key": {"LPS-binding ELISA": {"experiment": "LPS-binding ELISA", "set-up": "species or system E. coli", "details": "for binding to immobilised LPS: 0.02-2 μg/well on LPS-coated plate (100 ng/well)", "method": "(§1) FIG. 9 is a graphical representation showing LPS neutralization by FhHDM-1. The ability of FhHDM-1 (Δ), FhHDM-1 p1 (●) or FhHDM-1 p3 (▪) to bind to LPS was investigated by (A) incubating a range of concentrations of proteins (0.02-2 μg/well) in an LPS-coated (100 ng/well) microtitre plate. Bound peptides were detected by ELISA using rabbit anti-FhHDM-1 as a primary antibody. (B) FhHDM-1 or derived peptides (0.1 μg) were incubated in the presence of LPS (0.05-5 μg/well) and bound peptides measured as described above. Binding of peptides to the LPS-immobilized plates was expressed as a percentage of that measured for 2 μg (for panel A) or 0.1 μg (for panel B) of FhHDM-1. Data are the means±SD from three separate experiments. (C) FhHDM-1 and FhHDM-1 p3 but not FhHDM-1 p1 reduced the interaction between LPS and LBP as effectively as LL-37. LPS-coated microtitre plates were incubated with 5 μg/well of LL-37, FhHDM-1 or derived peptides for 1 h prior to the addition of 10% human sera in PBS. Interaction of LBP with LPS was measured by ELISA using an anti-LBP primary antibody and expressed as a percentage of that detected for 10% sera in the absence of added peptides. Data are the mean±SD of three separate experiments. Statistical significance was calculated using the student t-test and represent a comparison to the binding of 10% sera to immobilized LPS. (D) Binding of FITC-conjugated LPS to RAW264.7 cells was inhibited by LL-37, FhHDM-1 and peptides. […] The binding of FITC-LPS was analyzed by flow cytometry. LPS binding was expressed as a percentage of the mean fluorescence obtained for the addition of FITC-LPS to cells in the absence of peptides. […] Two hours later, sera was collected and serum levels of TNF and (F) IL-10 measured by ELISA. (G) Peritoneal macrophages were isolated, cultured unstimulated in media overnight and then levels of TNF and (H) IL-10 in the culture measured by ELISA. […]\nThe ability of FhHDM-1 and derived peptides to bind LPS from E. coli 0111:B4 was determined by ELISA using rabbit anti-FhHDM-1 as a primary antibody (FIG. 9A). […]"}, "[1]": {"test_system": "ATPase activity associated with lysosomal membranes (equivalent to vATPase activity)", "experiment": "ATPase activity of enriched lysosomal membranes", "format": "biochemical, murine", "details": "lysosomal membranes from RAW264.7 macrophage lysates", "method": "FIG. 17 is a graphical representation showing that FhHDM-1 P3 inhibits ATPase activity associated with lysosomal membranes in a concentration-dependent manner. A cellular fraction enriched for lysosomes was prepared by sequential centrifugation of RAW264.7 macrophage lysates. The lysosomal membranes were recovered and assayed (with or without HDM peptides) for ATPase activity using a commercially available kit.\nFIG. 18 is a diagrammatic representation showing a sequence alignment of various synthetic HDM peptides. The amphipathic helix is shaded in grey as are the mutated residues in peptides nonHP and 2Pro. NonHP is a variant of FhHDM-1 P3 in which the hydrophobic face of the FhHDM-1 amphipathic helix was removed. 2Pro is a variant of FhHDM-1 P3 in which two prolines substitutions were incorporated to disrupt the alpha-helix. Cons_p3 is a consensus peptide corresponding to various FhHDM-1 homologs. All peptides in the alignment were tested for their ability to inhibit the ATPase activity associated with enriched lysosomal membranes (prepared from RAW macrophages). Those with inhibitory activity are shown in bold text.\nA cellular fraction enriched for lysosomes was prepared by sequential centrifugation of RAW264.7 macrophage lysates. The lysosome pellet was extracted with water and the resulting lysosomal membranes were recovered and assayed (with or without HDM peptides) for ATPase activity using a commercially available kit."}, "RAW264.7 cells": {"test_system": "RAW264.7 cells", "experiment": "Binding of FITC-conjugated LPS to RAW 264.7 cells (flow cytometry)", "format": "cell-based, murine", "details": "0.1-10 μg/mL, 20 min at 4° C.", "method": "as §1\nThe effect of FhHDM-1 and derived peptides on the binding of FITC-LPS to CD14+ cells was determined by flow cytometry of the murine macrophage cell line RAW264.7. […]"}},
  "data": [
    {"molecule": "KARDRAMAYLAKDNLGEKITEVITILLNRL (FhHDM-1 peptide 1 comprising a truncated amphipathic helix contained in FhHDM-1) [FhHDM-1 p1, peptide in which the amphipathic helix is truncated]", "values": [
      {"measurement": "binding to immobilised LPS", "setting": "LPS-binding ELISA", "value": "did not bind to LPS"},
      {"measurement": "ATPase activity associated with lysosomal membranes", "setting": "[1]", "value": "did not inhibit ATPase activity"},
      {"measurement": "binding of FITC-LPS to RAW264.7 macrophages", "setting": "RAW264.7 cells", "value": "reduced binding of FITC-LPS to the cells in a dose-dependent manner albeit to a lesser extent"}
    ]},
    {"molecule": "FhHDM-1: 90-residue polypeptide from F. hepatica, Helminth Defense Molecule-1 (SEQ ID NO:24); recombinant form minus N-terminal signal peptide, expressed in E. coli (protein, listed as Fasciola hepatica) MRFIVLLCLAEVLLAAYVEARPSEESREKLRESGRKMVKALRDAVTKAYEKARDRAMAYLAKDNLGEKITEVITILLNRLTDRLEKYAGN", "values": [
      {"measurement": "binding to free LPS in solution (competition with immobilised LPS)", "setting": "LPS-binding ELISA; 0.1 μg/well with LPS 0.05-5 μg/well", "value": "bound to free LPS in solution"},
      {"measurement": "binding to immobilised LPS", "setting": "LPS-binding ELISA", "value": "bound to LPS in a concentration-dependent manner"},
      {"measurement": "ATPase activity associated with lysosomal membranes", "setting": "[1]", "value": "did not inhibit ATPase activity"},
      {"measurement": "binding of FITC-LPS to RAW264.7 macrophages", "setting": "RAW264.7 cells", "value": "reduced binding of FITC-LPS to the cells in a dose-dependent manner albeit to a lesser extent"}
    ]}
  ]
}
